Data from US20110118131A1 (published 2011).

target: T1, Ep-CAM (UniProt P16422 24-265, limits assumed); assay: Biacore, Fab periplasmic extract
T1 construct: Amine coupled to a CM5 chip in the Biacore assays
T1 sequence (looked up): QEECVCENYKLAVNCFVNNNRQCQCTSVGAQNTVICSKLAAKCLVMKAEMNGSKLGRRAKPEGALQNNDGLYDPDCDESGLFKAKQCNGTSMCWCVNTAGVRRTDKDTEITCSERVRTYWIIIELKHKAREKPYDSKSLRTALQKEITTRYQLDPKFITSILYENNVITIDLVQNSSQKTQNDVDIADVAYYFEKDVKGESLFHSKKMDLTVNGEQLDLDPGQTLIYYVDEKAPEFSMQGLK

Row | Binder | binding result | fold difference in affinity vs parental ING-1
1 | ING-1 light chain R101Y (Fab, V domains shown, Fab, periplasmic extract) VH: QIQLVQSGPELKKPGETVKISCKASGYTFTKYGMNWVKQAPGKGLKWMGWINTYTEEPTYGDDFKGRFAFSLETSASTANLQINNLKSEDTATYFCARFGSAVDYWGQGTSVTVSS VL: DIVMTQAAFSNPVTLGTSGSISCRSSKSLLHSNGITYLYWYLQKPGQSPQLLIYQMSNLASGVPDRFSSSGSGTDFTLRISRVEAEDVGVYYCAQNLELPYTFGGGTKLEMKR | no binding | –
2 | ING-1 light chain Y37S (Fab, V domains shown, Fab, periplasmic extract) VH: QIQLVQSGPELKKPGETVKISCKASGYTFTKYGMNWVKQAPGKGLKWMGWINTYTEEPTYGDDFKGRFAFSLETSASTANLQINNLKSEDTATYFCARFGSAVDYWGQGTSVTVSS VL: DIVMTQAAFSNPVTLGTSGSISCRSSKSLLHSNGITSLYWYLQKPGQSPQLLIYQMSNLASGVPDRFSSSGSGTDFTLRISRVEAEDVGVYYCAQNLELPRTFGGGTKLEMKR | – | 0.09 fold
3 | ING-1 light chain S28N (Fab, V domains shown, Fab, periplasmic extract) VH: QIQLVQSGPELKKPGETVKISCKASGYTFTKYGMNWVKQAPGKGLKWMGWINTYTEEPTYGDDFKGRFAFSLETSASTANLQINNLKSEDTATYFCARFGSAVDYWGQGTSVTVSS VL: DIVMTQAAFSNPVTLGTSGSISCRSSKNLLHSNGITYLYWYLQKPGQSPQLLIYQMSNLASGVPDRFSSSGSGTDFTLRISRVEAEDVGVYYCAQNLELPRTFGGGTKLEMKR | no binding | –
4 | ING-1 light chain T36R (Fab, V domains shown, Fab, periplasmic extract) VH: QIQLVQSGPELKKPGETVKISCKASGYTFTKYGMNWVKQAPGKGLKWMGWINTYTEEPTYGDDFKGRFAFSLETSASTANLQINNLKSEDTATYFCARFGSAVDYWGQGTSVTVSS VL: DIVMTQAAFSNPVTLGTSGSISCRSSKSLLHSNGIRYLYWYLQKPGQSPQLLIYQMSNLASGVPDRFSSSGSGTDFTLRISRVEAEDVGVYYCAQNLELPRTFGGGTKLEMKR | no binding | –
5 | ING-1 light chain S57Y (Fab, V domains shown, Fab, periplasmic extract) VH: QIQLVQSGPELKKPGETVKISCKASGYTFTKYGMNWVKQAPGKGLKWMGWINTYTEEPTYGDDFKGRFAFSLETSASTANLQINNLKSEDTATYFCARFGSAVDYWGQGTSVTVSS VL: DIVMTQAAFSNPVTLGTSGSISCRSSKSLLHSNGITYLYWYLQKPGQSPQLLIYQMYNLASGVPDRFSSSGSGTDFTLRISRVEAEDVGVYYCAQNLELPRTFGGGTKLEMKR | no binding | –
6 | ING-1 light chain Y54D (Fab, V domains shown, Fab, periplasmic extract) VH: QIQLVQSGPELKKPGETVKISCKASGYTFTKYGMNWVKQAPGKGLKWMGWINTYTEEPTYGDDFKGRFAFSLETSASTANLQINNLKSEDTATYFCARFGSAVDYWGQGTSVTVSS VL: DIVMTQAAFSNPVTLGTSGSISCRSSKSLLHSNGITYLYWYLQKPGQSPQLLIDQMSNLASGVPDRFSSSGSGTDFTLRISRVEAEDVGVYYCAQNLELPRTFGGGTKLEMKR | – | 0.03 fold
7 | ING-1 light chain Y37Q (Fab, V domains shown, Fab, periplasmic extract) VH: QIQLVQSGPELKKPGETVKISCKASGYTFTKYGMNWVKQAPGKGLKWMGWINTYTEEPTYGDDFKGRFAFSLETSASTANLQINNLKSEDTATYFCARFGSAVDYWGQGTSVTVSS VL: DIVMTQAAFSNPVTLGTSGSISCRSSKSLLHSNGITQLYWYLQKPGQSPQLLIYQMSNLASGVPDRFSSSGSGTDFTLRISRVEAEDVGVYYCAQNLELPRTFGGGTKLEMKR | – | 0.02 fold
8 | ING-1 light chain Y54H (Fab, V domains shown, Fab, periplasmic extract) VH: QIQLVQSGPELKKPGETVKISCKASGYTFTKYGMNWVKQAPGKGLKWMGWINTYTEEPTYGDDFKGRFAFSLETSASTANLQINNLKSEDTATYFCARFGSAVDYWGQGTSVTVSS VL: DIVMTQAAFSNPVTLGTSGSISCRSSKSLLHSNGITYLYWYLQKPGQSPQLLIHQMSNLASGVPDRFSSSGSGTDFTLRISRVEAEDVGVYYCAQNLELPRTFGGGTKLEMKR | no binding | –
9 | ING-1 light chain T36D (Fab, V domains shown, Fab, periplasmic extract) VH: QIQLVQSGPELKKPGETVKISCKASGYTFTKYGMNWVKQAPGKGLKWMGWINTYTEEPTYGDDFKGRFAFSLETSASTANLQINNLKSEDTATYFCARFGSAVDYWGQGTSVTVSS VL: DIVMTQAAFSNPVTLGTSGSISCRSSKSLLHSNGIDYLYWYLQKPGQSPQLLIYQMSNLASGVPDRFSSSGSGTDFTLRISRVEAEDVGVYYCAQNLELPRTFGGGTKLEMKR | – | 0.05 fold
10 | ING-1 light chain Y37N (Fab, V domains shown, Fab, periplasmic extract) VH: QIQLVQSGPELKKPGETVKISCKASGYTFTKYGMNWVKQAPGKGLKWMGWINTYTEEPTYGDDFKGRFAFSLETSASTANLQINNLKSEDTATYFCARFGSAVDYWGQGTSVTVSS VL: DIVMTQAAFSNPVTLGTSGSISCRSSKSLLHSNGITNLYWYLQKPGQSPQLLIYQMSNLASGVPDRFSSSGSGTDFTLRISRVEAEDVGVYYCAQNLELPRTFGGGTKLEMKR | – | 0.06 fold
11 | ING-1 light chain Y37K (Fab, V domains shown, Fab, periplasmic extract) VH: QIQLVQSGPELKKPGETVKISCKASGYTFTKYGMNWVKQAPGKGLKWMGWINTYTEEPTYGDDFKGRFAFSLETSASTANLQINNLKSEDTATYFCARFGSAVDYWGQGTSVTVSS VL: DIVMTQAAFSNPVTLGTSGSISCRSSKSLLHSNGITKLYWYLQKPGQSPQLLIYQMSNLASGVPDRFSSSGSGTDFTLRISRVEAEDVGVYYCAQNLELPRTFGGGTKLEMKR | – | 0.02 fold
12 | ING-1 light chain Y54E (Fab, V domains shown, Fab, periplasmic extract) VH: QIQLVQSGPELKKPGETVKISCKASGYTFTKYGMNWVKQAPGKGLKWMGWINTYTEEPTYGDDFKGRFAFSLETSASTANLQINNLKSEDTATYFCARFGSAVDYWGQGTSVTVSS VL: DIVMTQAAFSNPVTLGTSGSISCRSSKSLLHSNGITYLYWYLQKPGQSPQLLIEQMSNLASGVPDRFSSSGSGTDFTLRISRVEAEDVGVYYCAQNLELPRTFGGGTKLEMKR | – | 0.05 fold
13 | ING-1 light chain Y37E (Fab, V domains shown, Fab, periplasmic extract) VH: QIQLVQSGPELKKPGETVKISCKASGYTFTKYGMNWVKQAPGKGLKWMGWINTYTEEPTYGDDFKGRFAFSLETSASTANLQINNLKSEDTATYFCARFGSAVDYWGQGTSVTVSS VL: DIVMTQAAFSNPVTLGTSGSISCRSSKSLLHSNGITELYWYLQKPGQSPQLLIYQMSNLASGVPDRFSSSGSGTDFTLRISRVEAEDVGVYYCAQNLELPRTFGGGTKLEMKR | – | 0.01 fold
14 | ING-1 light chain S32N (Fab, V domains shown, Fab, periplasmic extract) VH: QIQLVQSGPELKKPGETVKISCKASGYTFTKYGMNWVKQAPGKGLKWMGWINTYTEEPTYGDDFKGRFAFSLETSASTANLQINNLKSEDTATYFCARFGSAVDYWGQGTSVTVSS VL: DIVMTQAAFSNPVTLGTSGSISCRSSKSLLHNNGITYLYWYLQKPGQSPQLLIYQMSNLASGVPDRFSSSGSGTDFTLRISRVEAEDVGVYYCAQNLELPRTFGGGTKLEMKR | no binding | –
15 | ING-1 light chain S57Q (Fab, V domains shown, Fab, periplasmic extract) VH: QIQLVQSGPELKKPGETVKISCKASGYTFTKYGMNWVKQAPGKGLKWMGWINTYTEEPTYGDDFKGRFAFSLETSASTANLQINNLKSEDTATYFCARFGSAVDYWGQGTSVTVSS VL: DIVMTQAAFSNPVTLGTSGSISCRSSKSLLHSNGITYLYWYLQKPGQSPQLLIYQMQNLASGVPDRFSSSGSGTDFTLRISRVEAEDVGVYYCAQNLELPRTFGGGTKLEMKR | no binding | –
